Substitutions are numbered along the chain they refer to.
T1: RAMP3_Scr_V1
T1 construct: Expressed in HEK cells
T1 chain: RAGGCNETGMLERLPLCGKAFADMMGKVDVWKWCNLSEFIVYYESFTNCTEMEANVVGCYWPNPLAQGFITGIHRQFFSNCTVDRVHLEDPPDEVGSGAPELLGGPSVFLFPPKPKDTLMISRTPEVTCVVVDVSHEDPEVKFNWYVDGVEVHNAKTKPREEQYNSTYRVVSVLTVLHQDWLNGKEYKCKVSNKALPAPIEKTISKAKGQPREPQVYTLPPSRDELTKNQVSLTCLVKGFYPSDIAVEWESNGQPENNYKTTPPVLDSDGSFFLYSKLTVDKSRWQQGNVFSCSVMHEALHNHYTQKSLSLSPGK

T2: RAMP2 Scr V1
T2 construct: it is not part of the secreted protein; Expressed in HEK cells
T2 chain: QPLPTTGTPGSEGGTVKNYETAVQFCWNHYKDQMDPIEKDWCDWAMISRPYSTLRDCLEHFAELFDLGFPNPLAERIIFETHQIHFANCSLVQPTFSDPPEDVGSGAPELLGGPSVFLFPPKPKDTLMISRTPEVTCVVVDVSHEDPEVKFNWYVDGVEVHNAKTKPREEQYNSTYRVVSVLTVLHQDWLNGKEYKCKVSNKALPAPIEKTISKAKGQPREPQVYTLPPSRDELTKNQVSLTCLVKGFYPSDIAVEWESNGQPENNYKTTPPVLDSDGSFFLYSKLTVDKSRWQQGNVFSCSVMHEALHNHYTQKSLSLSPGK

T3: RAMP2 IMM ECD V1
T3 construct: The entry includes a signal peptide whose residues cannot be read (drawing); The text says 'RAMP2 ECD'; also called RAMP2 ECD
T3 chain: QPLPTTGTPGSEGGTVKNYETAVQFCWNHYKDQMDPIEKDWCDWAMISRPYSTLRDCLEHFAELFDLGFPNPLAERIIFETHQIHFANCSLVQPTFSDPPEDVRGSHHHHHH

B1: RAMP3-rIgG-k1-3A5 (antibody, V domains shown)
VH: QSLEESGGGLVQPEGTLTLTCTVSGFSFSSNYWICWVRQAPGKGLEWIACIVTNSGTTYYTSWAKGRLTLSKTSSTTVTLQMTSLTAADTATYFCARDNNSVTGVEFNLWGPGTLVTVSS
VL: DVVMTQTPASVSAAVGATVTIKCQASETIGNNLAWYQQKPGQPPKVLMFLASTLASGVPSRFKGSRSGTEYTLTISGVQCDDAATYYCQSYLGTSYAFGGGTEVVVK
notes: tested as recombinant rabbit IgG-kappa1; also called rlgG-k1-3A5; 3A5_#15
B2: RAMP3-rIgG-k1-3A12 (antibody, V domains shown)
VH: QEQLEESEGGLFKPTDTLTLTCTVSGFSLSSYGVSWVRQAPGNGLEYIGFIGKTGSAYYASWAKSRSTITRNTTLNTVTLKMTSLTVADTATYFCARLGPGSIYYFDIWGPGTLVTVSS
VL: DPMLTQTPSSKSVPVGGTVTINCQSSESVYDNNWLAWFQQKPGQPPKRLIYSASTLASGVSSRFKGSGSGTQFTLTISDVQCDDAATYYCTGYKSRTTDEIAFGGGTEVVVK
notes: tested as recombinant rabbit IgG-kappa1; also called rlgG-k1-3A12; 3A12_#17
B3: RAMP2-rIgG-k1-1H7 (antibody, V domains shown)
VH: QSLEESGGDLVKPEGSLTLTCTASGFSFSISYWICWVRQTPGKGLEWIGCIYGGSSGRPYYASWAKGRFTISKTSSTTVTLQMTSLTAADTAAYFCATTAYGGYGYGTWGPGTLVTVSS
VL: AAVLTQTPSSTSGPVGGTVTIKCQASQNIGSFLSWYQQKPGQPPKLLIYSASSLATGVPSRFSGSGSGTQFTLTISGVQCDDAATYYCLGFYAYRSDDGTAFGGGTEVVVK
notes: tested as recombinant rabbit IgG-kappa1; also called rlgG-k1-1H7; 1H7_#5
B4: RAMP2-rIgG-k1-2A6 (antibody, V domains shown)
VH: QSVEESGGDLVKPGASLTLTCTASGFSFSSRYYMCWVRQAPGKGLEWIGCIFGGSSGNTHYASWAKGRFTIAKTSSTTVTLRMTSLTAADTATYSCVRSDAWGVNLWGPGTLVTVSS
VL: DVVMTQTPASVEAAVGGTVTIKCQASQSISNLLAWYQQKPGQPPKRLIYGASNLESGVPSRFKGSGSGTQFTLTISDLECADAATYYCQCSYDGSSPNAFGGGTEVVVE
notes: tested as recombinant rabbit IgG-kappa1; also called rlgG-k1-2A6; 2A6_#9
B5: RAMP2-rIgG-k1-2H3 (antibody, V domains shown)
VH: B4 VH with G49A, G57D, T59S, H60Y, S63R, A72S, S95F
VL: AAVMTQTPSPVSGVVGGTVTIKCQASQSIYGYFSWYQQKPGQPPKLLIYSASDLASGVPSRFKGSGSGTQFTLTISDLECADAATYYCQCSYDGSSPNAFGGGTEVVVK
notes: tested as recombinant rabbit IgG-kappa1; also called rlgG-k1-2H3; 2H3_#13
B6: RAMP2-rIgG-k1-1A10 (antibody, V domains shown)
VH: QSLEESGGGLVQPEGSLTLTCTASGFSFSSSYYMCWVRQAPGKGLEWIGSIYTLSGSTAYASWAKGRFTISKTSSTTVTLQMTSLTAADTAMYFCARDSDGWGVSFNLWGPGTLVTVSS
VL: AAVMTQTPSSLSAAVGGTVTIKCQASQSIRNQVSWYQQKPGQRPKLLIYRASTLESGVPSRFKGSGSGTDFTLTISDLECADAATYYCQCTYGSSSSNRYGNTFGGGTEVAVK
notes: tested as recombinant rabbit IgG-kappa1; also called rlgG-k1-1A10; 1A10_#7
B7: RAMP2-rIgG-k1-1H6#4 (antibody, V domains shown)
VH: QEHLVESEGGLFKPTDTLTLTCTVSGFSLSSYGVSWVRQAPGKGLEWIGVIGATGSAYYANWAKSRSTITRNTNLNTVTLKVTSLTAADTATYFCARDDVLTGMDLWGPGTLVTVSS
VL: APVLTQTPASVEAAVGGTVTIKCQASQSINSWLSWYQQKPGQPPKLLIYQASKLASGVPSRFKGSGSGTEYTLTISDLKCADAATYYCQSYDYASNSGYVSNPFGGGTEVVVK
notes: tested as recombinant rabbit IgG-kappa1; also called rlgG-k1-1H6
B8: RAMP2-rIgG-k1-2A8 (antibody, V domains shown)
VH: QSLEESGGGLVQPEGSLTLTCTASGFDLSRYYYIFWVRQAPGKGLEWIGCIYIGGNIITYYASWAKGRFTISKTSSPAVTLQMTSLTVADTATYFCARGTGYGGYGDVSLWGPGTLVTVSS
VL: APVLTHTAASVSEPVGGIVTINCQASQSIGSNLAWYQQKSGQPPKLLIYDASNLVSGVPSRFKGSRSGTEYTLTISDLECADAGTYYCQGYYYGSSTSYNLVSFGGGTEVVVK
notes: tested as recombinant rabbit IgG-kappa1; also called rlgG-k1-2A8; 2A8_#12
B9: RAMP2-rIgG-k1-1A7#1 (antibody, V domains shown)
VH: B3 VH with L3V
VL: DGVMTQTPSSVSAAVGSTVTISCQASQSVFSNNYLSWYQQKPGQPPKLLIYTASSLASGVPSRFKGSGSGTQFTLTISDLECADAATYYCQCTYGKSGTDTYLNAFGGGTEVVVK
notes: tested as recombinant rabbit IgG-kappa1 made in CHOEBNALT85-1E9 cells (supernatant); also called rlgG-k1-1A7
B10: RAMP3-rIgG-k1-5H9 (antibody, V domains shown)
VH: QSLEESEGGLFKPTDTLTVTCIVSGLSLSRNAMSWVRQAPGSGLEWIGVIVTYGDTYYASWAKSRSTITRNTNENTVTLKMTSLTAADTATYFCIGGLDIWGPGTLVTVSS
VL: DVVMTQTPASVEAAVGGTVTIKCQATESIASWLAWYQQKAGQPPKLLIYEASKLESGVPSRFKGSGSGTEFTLTISDLECADAATYYCQSYLYSSSNTYGNSFGGGTEVVVK
notes: tested as recombinant rabbit IgG-kappa1; also called rlgG-k1-5H9; H9_#22
B11: RAMP3-rIgG-k1-6B8 (antibody, V domains shown)
VH: QSLEESGGGLVKPEGSLTLTCTASGFFFDRSYWICWVRQTPAKGLEWIACIVVSSGATYYASWAKGRLTLSKTSSTTVTLQMTSLTAADTAIYFCARDSSSTSGVEFNLWGPGTLVTVSS
VL: DVMMTQTPASVSEPVGGTVTIKCQASQNIGNNLAWYQQKPGQPPKLLIYLTSTLASGVPSRFKGSRSGTEFTLTISDLECADAATYFCQSYLYTTYAFGGGTEVVVK
notes: tested as recombinant rabbit IgG-kappa1; also called rlgG-k1-6B8; 6B8_#24
B12: RAMP3-rIgG-k1-6D8 (antibody, V domains shown)
VH: QSVEESGGDLVRPEGSLTLTCTASGFSLSSSYWICWVRQAPGKGLEWIACIVSNTGTTYYASWAKGRLTLSKTSSTTVTLQMTSLTAADTATYFCARDNNSKSGVEFNLWGPGTLVTVSS
VL: B11 VL with M3V, Q42H, T51A, F87Y
notes: tested as recombinant rabbit IgG-kappa1; also called rlgG-k1-6D8; 6D8_#28
B13: RAMP3-rIgG-k1-4C10 (antibody, V domains shown)
VH: QEQLEESGGGLVKPTDTLTLTCTVSGFSLSTNSIFWVRQAPGNGLEWIGAISYAGGTAYASWAKSRSTITRNTNLNTVTLKMTSLTAADTATYFCGRGYVGYSRSKGDIWGPGTLVTVSS
VL: DGVMTQTPSSTSAAVGSTVTISCQSTQSIINNNWLAWYQQKPGHSPKLLIYDASTLASGVPSRFSGSGSGTQFTLTISDLECDDAATYYCAARYSGDIYTFGGGTEVVVR
notes: tested as recombinant rabbit IgG-kappa1; also called rlgG-k1-4C10; 4C10_#19
B14: RAMP3-rIgG-k1-6C2 (antibody, V domains shown)
VH: QEQLEESEGGLFKPTDTLTLTCTVSGFSLSVYALTWVRQAPGNGLEWIGAIGNSGNTYYASWAKSRSTITRNTNENTVTLKMTSLTAADTATYFCARGYVRINVWGPGTLVTVSS
VL: DGVMTQTPSSVSAAVGGTVTISCQSSQSVYKNNYLSWFQQKPGQPPKLLIYEISKLESGVPDRFSGSGSGTQFTLTISGVQCDDAATYYCLGGYDDDSDTSFGGGTEVVVK
notes: tested as recombinant rabbit IgG-kappa1; also called rlgG-k1-6C2; 6C2_#25

Target: T1, RAMP3_Scr_V1
Test: ELISA, 24-well supernatants on coated RAMP3 Scr
Procedure: (§1) Amplified VH and VL were purified and altogether 20 cloning reactions per target were performed for cloning into rabbit IgG-κ1 encoding two-cassette expression plasmid by using Ligase Independent Cloning (LIC) method. Resulting antibody library pools were grown in E. coli strain DH5a. Plasmid DNA was purified and transfected into CHOEBNALT85-1E9 cells for transient production of antibodies in serum-free media for 48 hours in 24-well format. Cell culture supernatants were tested for RAMP2 Scr and RAMP2 ECD or RAMP3 Scr binding in ELISA (wells coated at 1 μg/ml in PBS).

binding result	Binder
binds	B1
binds	B2

Target: T2, RAMP2 Scr V1
Test: ELISA, 24-well supernatants on coated antigen
Procedure: as §1

binding result	Binder
binds	B3
binds	B4
binds	B5
binds	B6
binds	B7
binds	B8

Target: T3, RAMP2 IMM ECD V1
Test: direct ELISA, 6-well supernatants at 8-500 ng/ml on RAMP2 ECD coated at 1.0 µg/ml
Procedure: Immuno modules (Thermo Scientific™) were coated with RAMP2 ECD or RAMP3 Scr, 1.0 μg/ml in PBS, 100 μl/well, 20 h at 4° C. Supernatants of anti-RAMP2 and anti-RAMP3 rabbit IgG-κ1 antibody clones were transfered into wells at different concentrations (8-500 ng/ml; 100 μL/well, in PBS-0.05% Tween 20-1% BSA) and the plates were incubated for 60 min. on a shaker at room temperature (RT). Goat anti-rabbit-IgG HRP conjugate (Invitrogen; 1:20 000 in 1% BSA-PBS-0.05% Tween 20; 100 μL/well) was used as secondary reagent in direct ELISA (incubation time 60 min. at RT). To visualize, TMB substrate was added for 10 min. and stopped with 0.5 M H₂SO₄. Between every incubation step the wells were washed 4 times with PBS-Tween 20.

titer [ng/mL]	Binder
< 8	B9
< 8	B3
< 8	B4
< 8	B5
< 8	B6
< 8	B7
< 8	B8

Target: T2, RAMP2 Scr V1
Test: ELISA, single-clone supernatants on RAMP2 Scr
Procedure: (§2) 8 specific ELISA positive pools against both targets were selected for single clone isolation. Single clones were selected in LB-Amp solid medium, colonies were grown in liquid medium o/n on shaker at 37° C. in 96-well microtiter plates (2-4 96-well plates per target), plasmid DNA was isolated and transfected into CHOEBNALT85-1E9 cells for antibody transient production. 48-72 hours after transfection supernatants were analyzed by ELISA on RAMP2 Scr or RAMP3 Scr respectively.

binding result	Binder
binds	B9

Target: T1, RAMP3_Scr_V1
Test: ELISA, single-clone supernatants on RAMP3 Scr
Procedure: as §2

binding result	Binder
binds	B10
binds	B11
binds	B12
binds	B13
binds	B14

Reference: patent publication US20260265383A1 (FUSION ANTIBODIES, published 2026)
